Experimental data published in patent US20120230990A1 (MERCK SERONO, published 2012).

Tests used:
[1] = biological target: T1, human IL-22RA-ECD (IL-22RA-Extra Cellular Domain) (human, UniProt Q8N6P7 16-228); assay: KinExA, IL-22RA-ECD with 6 His tag
T1 construct: also called human IL-22RA extracellular domain; hIL-22RA coated on the plates; not shown: 6 His tag
T1 sequence: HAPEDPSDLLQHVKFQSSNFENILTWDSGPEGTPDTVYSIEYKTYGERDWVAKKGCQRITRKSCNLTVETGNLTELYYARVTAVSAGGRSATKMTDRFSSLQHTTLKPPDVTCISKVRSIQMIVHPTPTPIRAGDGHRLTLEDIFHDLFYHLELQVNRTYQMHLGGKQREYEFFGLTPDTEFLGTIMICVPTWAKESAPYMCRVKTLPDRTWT

mouse IL-22RA-ECD [2] = biological target: T2, mouse IL-22RA-ECD (mouse, UniProt Q80XZ4 16-230); assay: KinExA, IL-22RA-ECD with 6 His tag
T2 construct: extracellular domain; Produced in HEK-293 cells and NiNTA-purified; not shown: 6 His tag
T2 sequence (looked up): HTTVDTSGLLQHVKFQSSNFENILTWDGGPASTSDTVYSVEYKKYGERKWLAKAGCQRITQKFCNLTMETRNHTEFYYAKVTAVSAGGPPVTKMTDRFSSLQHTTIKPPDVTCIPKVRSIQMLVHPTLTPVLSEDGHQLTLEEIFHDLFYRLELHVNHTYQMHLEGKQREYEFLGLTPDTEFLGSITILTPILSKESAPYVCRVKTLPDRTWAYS

rat IL-22RA-ECD [3] = biological target: T3, rat IL-22RA-ECD (rat); assay: KinExA, IL-22RA-ECD with 6 His tag
T3 construct: extracellular domain; Produced in HEK-293 cells and NiNTA-purified

[4] = biological target: T4, rhesus monkey IL-22RA-ECD (rhesus monkey); assay: KinExA, IL-22RA-ECD with 6 His tag
T4 construct: extracellular domain; Produced in HEK-293 cells and NiNTA-purified

[5] = biological target: T5, cynomolgus monkey IL-22RA-ECD (cynomolgus monkey); assay: KinExA, IL-22RA-ECD with 6 His tag
T5 construct: extracellular domain; Produced in HEK-293 cells and NiNTA-purified

[6] = biological target: T6, marmoset monkey IL-22RA-ECD (marmoset monkey); assay: KinExA, IL-22RA-ECD with 6 His tag
T6 construct: extracellular domain; Produced in HEK-293 cells and NiNTA-purified

[7] = biological target: T1, human IL-22RA-ECD (IL-22RA-Extra …); assay: Biacore, IL-22RA-ECD with 6 His tag
mouse IL-22RA-ECD [8] = biological target: T2, mouse IL-22RA-ECD; assay: Biacore, IL-22RA-ECD with 6 His tag
rat IL-22RA-ECD [9] = biological target: T3, rat IL-22RA-ECD; assay: Biacore, IL-22RA-ECD with 6 His tag
[10] = biological target: T6, marmoset monkey IL-22RA-ECD; assay: Biacore, IL-22RA-ECD with 6 His tag
dog IL-22RA-ECD = biological target: T7, dog IL-22RA-ECD (dog); assay: Biacore, IL-22RA-ECD with 6 His tag
T7 construct: extracellular domain; Produced in HEK-293 cells and NiNTA-purified

[11] = biological target: T8, human IL-22 binding protein (human, UniProt Q969J5-2 22-231, limits assumed); assay: competitive ELISA: biotinylated 280-346-TSY on plate-coated human IL-22RA-ECD, soluble competitor titrated, peroxidase-conjugated streptavidin, OD 450nm
T8 construct: also called hIL-22BP; IL-22BP
T8 sequence (looked up): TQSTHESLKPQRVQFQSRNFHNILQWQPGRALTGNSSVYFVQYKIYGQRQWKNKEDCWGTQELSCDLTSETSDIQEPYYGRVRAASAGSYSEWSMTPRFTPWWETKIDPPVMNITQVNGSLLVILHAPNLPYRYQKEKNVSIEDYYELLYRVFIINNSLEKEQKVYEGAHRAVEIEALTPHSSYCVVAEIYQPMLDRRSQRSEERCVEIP
Protocol: (§1) FIG. 23 reports the results of a competitive ELISA done to measure the specificity of 280.346.TSY to human IL-22RA. Microtiter plates were coated with human IL-22RA-ECD (i.e. IL-22RA-Extra Cellular Domain). Biotinylated 280-346-TSY antibody was added to the plate in the presence of competitors: human interleukin 22 receptor alpha (hIL-22RA), human IL-22 binding protein (hIL-22BP), murine IL-22 receptor alpha (mIL-22RA), human IL-10 receptor alpha (hIL-10R) and human IL-20 receptor alpha (hIL-20R).
(§2) Specificity and binding affinity of 280.346.TSY was determined using a competitive ELISA. Microtiter plates were coated with human IL-22RA-ECD (i.e. IL-22RA-Extra Cellular Domain). Biotinylated 280-346-TSY antibody was added to the plate in the presence of competitors: human interleukin 22 receptor alpha (hIL-22RA), human IL-22 binding protein (hIL-22BP), mouse IL-22 receptor alpha (mIL-22RA), human IL-10 receptor alpha (hIL-10R) and human IL-20 receptor alpha (hIL-20R).

[12] = biological target: T9, human IL-10 receptor alpha (human, UniProt Q13651 22-235, limits assumed); assay: as above
T9 construct: also called hIL-10R; IL-10R alpha
T9 sequence (looked up): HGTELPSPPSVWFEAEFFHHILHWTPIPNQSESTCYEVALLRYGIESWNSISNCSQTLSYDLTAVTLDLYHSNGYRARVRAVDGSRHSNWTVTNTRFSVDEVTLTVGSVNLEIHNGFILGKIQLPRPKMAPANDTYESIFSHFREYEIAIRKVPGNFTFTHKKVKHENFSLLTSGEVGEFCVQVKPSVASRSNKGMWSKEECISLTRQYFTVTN
Protocol: as §1, §2

[13] = biological target: T10, human IL-20 receptor alpha (human, UniProt Q9UHF4 30-250, limits assumed); assay: as above
T10 construct: also called hIL-20R; IL-20R alpha
T10 sequence (looked up): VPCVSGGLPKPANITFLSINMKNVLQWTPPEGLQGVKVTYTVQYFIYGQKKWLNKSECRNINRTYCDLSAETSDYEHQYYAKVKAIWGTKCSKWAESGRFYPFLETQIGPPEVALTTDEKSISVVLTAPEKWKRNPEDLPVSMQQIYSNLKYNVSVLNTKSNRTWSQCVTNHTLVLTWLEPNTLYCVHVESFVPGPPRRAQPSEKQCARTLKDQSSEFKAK
Protocol: as §1, §2

Kd [1]: ~0.0285 nM | Kd (mouse IL-22RA-ECD [2]): ~4.85 nM | Kd (rat IL-22RA-ECD [3]): ~587 nM | Kd [4]: ~0.137 nM | Kd [5]: ~0.0645 nM | Kd [6]: ~0.0385 nM | Kd [7]: ~0.15 nM | Kd (mouse IL-22RA-ECD [8]): ~20 nM | Kd (rat IL-22RA-ECD [9]): ~1000 nM | Kd [10]: 0.4 nM | Kd (dog IL-22RA-ECD): 100 nM | binding result [11]: no binding | binding result [12]: no binding | binding result [13]: no binding
B1: 280.346.TSY (humanized anti-human IL-22RA antibody comprising 280.VH3-66-46 paired with 280.VK4-1-TSY, human IgG1/kappa) (antibody, V domains shown)
VH: EVQLVESGGGLVQPGGSLRLSCAASGYSITAEYMNWVRQAPGKGLEWIGEINPSTGTTTYNQKFKGRFTISVDQSKNTAYLQMNSLRAEDTAVYYCARFDAYFDYWGQGTLVTVSS
VL: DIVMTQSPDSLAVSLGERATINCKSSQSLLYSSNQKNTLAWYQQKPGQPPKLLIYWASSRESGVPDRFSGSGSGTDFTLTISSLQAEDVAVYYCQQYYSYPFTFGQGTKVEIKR
notes: Produced in CHO cells; also called 280.VH3-66-46/VK4-1-TSY; 280.VH3-66.46 paired with 280.IGKV4-1-TSY
